# Assay results from PMC3760334.
# How the values were obtained:
# [1] = target: signal recognition particle (SRP), fluorescein-labeled at C421 (E. coli) (UniProt P0AGD7); experiment: fluorescence polarisation
# [2] = target: RNC_(1A9L) bound to donor-labeled SRP (E. coli | not stated) (UniProt P0AGD7); experiment: FRET or BRET
# [3] = target: RNC_(2A8L) bound to donor-labeled SRP (E. coli | not stated) (UniProt P0AGD7); experiment: FRET or BRET
# [4] = target: RNC_(EspP) bound to donor-labeled SRP (E. coli) (UniProt P0AGD7); experiment: FRET or BRET
# [5] = target: RNC_(luciferase) bound to donor-labeled SRP (E. coli | firefly) (UniProt P0AGD7); experiment: FRET or BRET
Kd [1] [nM],Substance,kon [2] [M⁻¹ s⁻¹],kon [3] [M⁻¹ s⁻¹],Kd [4] [nM],Kd [5] [nM]
130,RNC_(luciferase): stalled ribosome-nascent chain complex with a nascent chain of firefly luciferase (from UniProt P08659 1-550),–,–,–,–
108,RNC_(phoA): stalled ribosome-nascent chain complex with the signal sequence of alkaline phosphatase (phoA),–,–,–,–
–,"SRP receptor (SR), acceptor-labeled (from UniProt P10121 1-497)",9.9e+06,8.8e+06,311,2060

Substance,Kd [1] [nM],kon [2] [M⁻¹ s⁻¹],kon [3] [M⁻¹ s⁻¹],Kd [4] [nM],Kd [5] [nM]
RNC_(EspP): stalled ribosome-nascent chain complex with the signal sequence of EspP,13.6,–,–,–,–
